Data taken from the supplement of paper PMC10567573.

B1: ACSBG2 (parent)
chain: TPMTIPEFFRESVNRFGTYPALAS

Variants of: B1
Test: protein stability index of a GFP-peptide fusion (GPS, HEK-293T) (PSI 1-6); higher = more stable
Settings: c terminus: a fixed tail appended
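Also: lentivirally expressed fusions sorted by FACS into six bins by GFP to DsRed ratio, PSI derived from sequencing read proportions per bin multiplied by bin number.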

Protein stability index, by site and new letter:
N14: R 2.01, P 2.66, A 2.51, C 1.83, K 2.54, S 2.51, T 2.23, D 2.65, V 1.93, H 2.05, I 1.83, E 2.81, Y 1.88, M 2.39, W 1.74, Q 2.24, F 1.66, L 1.62, G 2.18
A21: W 2.53, N 2.19, S 2.31, K 2.87, P 2.32, L 1.77, E 2.69, V 1.78, C 1.88, T 2.02, M 2.26, D 2.84, R 2.16, I 2.23, H 2.32, G 2.47, Q 2.5, F 1.65, Y 2.17
S12: D 2.96, V 2.19, H 2.27, Q 2.65, W 1.39, K 2.17, L 2.01, E 2.69, R 2.25, M 2.64, C 1.53, I 1.76, A 1.97, T 2.02, F 1.66, P 2.47, G 2.48, N 2.25, Y 1.86
V13: F 1.97, W 1.76, I 2.56, E 2.78, N 2.84, S 2.44, K 2.31, R 2.37, H 2.59, Q 2.28, Y 2.64, L 2.09, C 3.09, A 2.42, G 2.2, M 2.41, D 2.79, T 2.98, P 2.43
P20: A 1.89, E 2.4, Q 1.71, K 2.39, D 2.67, T 1.48, L 2.63, H 1.92, M 2.87, G 2.3, I 2.34, F 2.49, S 2.04, N 2.11, W 2.11, Y 1.56, C 1.97, R 2.18, V 2.41
F16: R 2.86, Q 2.8, Y 2.22, C 2.54, D 3.62, A 3.51, M 3.39, E 3.37, G 2.48, K 3.22, L 2.11, H 3.03, P 2.92, V 2.64, I 2.36, W 2.16, T 2.87, N 3.41, S 2.71
L22: T 2.88, W 2.57, Q 2.5, F 2.63, I 2.34, V 2.02, R 3.12, H 2.61, M 1.88, Y 1.93, E 3.37, N 3.45, D 3.19, P 2.63, C 2.54, K 3.08, G 3, A 2.51, S 3.04
S24: M 2.67, I 1.48, H 1.93, G 2.18, A 2.06, Y 1.76, D 2.87, L 2.04, Q 2.08, V 1.37, C 2.03, R 2.96, P 2.52, K 2.45, F 1.58, W 1.66, E 2.83, T 2.07, N 2.64
Y19: P 2.87, V 2.71, Q 2.91, W 2.38, A 2.82, L 2.38, M 2.77, F 2.52, S 2.54, G 2.73, K 2.8, C 2.19, T 2.76, I 2.78, D 3.44, N 2.84, E 3.37, R 3.17, H 2.77
E11: D 2.58, P 1.72, R 1.99, I 1.69, Y 1.68, C 1.95, W 2.08, S 2.15, L 1.48, K 2.09, M 2.76, A 1.95, T 2.17, N 1.82, V 1.99, F 2.47, G 1.89, Q 1.5, H 1.84
R10: Y 1.86, L 1.45, N 3.3, T 2.37, K 2.55, V 1.54, Q 2.62, S 2.45, M 1.63, P 3.03, W 1.97
T18: N 2.35, V 2.29, Q 2.02, K 2.77, I 2.02, D 2.9, M 1.74, R 2.17, H 2.1, C 2.35, S 2.06, L 2.31, E 3.05, Y 2.09, A 1.89, W 1.49, F 1.9, G 2.17, P 2.08
A23: K 2.71, V 1.66, M 1.97, S 2.56, G 2.2, T 2.33, Y 1.82, H 2.43, F 1.67, N 2.5, I 2.37, L 2.19, C 1.77, E 2.61, Q 2.69, W 2.55, P 2.2, D 2.88, R 2.56
G17: P 2.22, Q 1.86, W 2.12, E 2.35, N 2.34, M 2.17, C 1.43, L 1.95, A 1.78, D 2.76, R 2.42, K 2.27, Y 2.04, T 1.91, F 1.8, H 2.28, V 2.1, I 1.97, S 2.62
R15: K 2.1, I 2.24, C 2.12, F 2.25, S 2.64, L 2.38, D 2.78, A 2.41, G 1.97, H 2.14, Q 2.69, M 1.8, V 2.41, E 2.62, P 2.04, T 2.57, Y 1.99, W 1.52, N 2.5
